“Also recorded” adds a separate entry of the source. Ends that are not written are not given here.
Tests used:
[1] = cited from earlier work
[2] = target: T1, I-Au molecule (Mus musculus, UniProt P06344+P14438); settings: cited from earlier work
T1 sequence (P06344 whole entry, looked up): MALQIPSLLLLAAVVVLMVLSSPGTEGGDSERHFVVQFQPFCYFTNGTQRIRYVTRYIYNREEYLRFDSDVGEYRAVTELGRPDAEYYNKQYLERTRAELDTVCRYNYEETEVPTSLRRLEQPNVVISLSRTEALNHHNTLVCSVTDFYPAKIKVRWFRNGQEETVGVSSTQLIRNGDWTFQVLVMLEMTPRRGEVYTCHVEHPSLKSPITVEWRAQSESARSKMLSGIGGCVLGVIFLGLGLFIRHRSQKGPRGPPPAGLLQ
T1 sequence (P14438 whole entry, looked up): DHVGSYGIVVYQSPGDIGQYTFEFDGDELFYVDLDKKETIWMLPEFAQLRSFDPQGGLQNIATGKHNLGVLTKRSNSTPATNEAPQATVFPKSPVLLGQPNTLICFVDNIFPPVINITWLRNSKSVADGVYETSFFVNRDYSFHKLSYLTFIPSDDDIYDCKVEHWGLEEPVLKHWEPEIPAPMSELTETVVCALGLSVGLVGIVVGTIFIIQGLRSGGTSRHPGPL

[3] = test system: Seu.5 T cells; experiment: T cell hybridoma assay: IL-2 production by Seu.5 T cells; type: cell-based, A/J mice; settings: APC pulsed with the peptide, tissue culture assay; data not shown
[4] = test system: A/J mice; experiment: Induction and quantitation of autoimmune myocarditis in A/J mice; type: in vivo; settings: experiment 1; 100 μg myosin or 100 nmol peptide; H&E cross-sections, day 21
[5] = target: purified I-Ak molecules (mouse); experiment: radioligand binding
[6] = target: I-Ak molecules on the surface of I-Ak-expressing M12.C3.F6 B-lymphoma cells (mouse); experiment: SDS/PAGE stability assay

MBP(Ac1-11): myelin basic protein epitope (Ac-MGNHSGKRELS; UniProt P04370 1-11, looked up, fragment)
induction of experimental autoimmune encephalomyelitis [1]: could strongly induce experimental autoimmune
binding to I-Au [2]: bound very weakly

SAFDVLSFTAEEKA [myhc0~(335-348)]
stimulation of Seu.5 T cells by peptide-pulsed APC [3]: strongly stimulated

DSAFDVLSFTAEEKAGVYK [myhca(334-352)]
severity of myocarditis in photomicrographs (Fig. 4 B) [4]: Moderate; also recorded: Severe

B1: 125I-labeled HEL(YE52-61) (peptide)
peptide: YEDYGILQINSR
modifications: also: 125I-labeled, residue not given here
maximum binding in the absence of competitors [5]: 148000 cpm

B2: myhc alpha(334-352) peptide, unlabeled (peptide)
peptide: DSAFDVLSFTAEEKAGVYK
relative IC50 (relative to unlabeled HEL(YE52-61)) [5]: 15.6

B3: myhc alpha(334-352) peptide, radiolabeled (peptide)
peptide: DSAFDVLSFTAEEKAGVYK
modifications: not fully specified; also: radiolabel on Tyr, isotope not given here
percent SDS-stable I-Ak [6]: 50%

B4: bovine RNase(43-56) (peptide)
peptide: VNTFVHESLADVQA
relative IC50 (relative to unlabeled HEL(YE52-61)) [5]: 33.3

B5: HEL(YE52-61), unlabeled (peptide)
peptide: YEDYGILQINSR
relative IC50 (relative to unlabeled HEL(YE52-61)) [5]: 1

B6: 125I-labeled HEL(48-61) (peptide)
peptide: DGSTDYGILQINSR
modifications: also: 125I-labeled, residue not given here
percent SDS-stable I-Ak [6]: 96%

Source: paper PMC2192215 (The Journal of Experimental Medicine, 1995)
